3 molecules from PMC5560778 can be followed below.

In test [1] the target is NaV1.5 α subunit, DIII LFS voltage clamp fluorometry construct (M1296C), labelled with MTS-TAMRA (human) (UniProt Q14524).
The target in test [2] is NaV1.5 α subunit, DIV voltage clamp fluorometry construct (S1618C), labelled with MTS-TAMRA (human) (UniProt Q14524).
The target of test [3] is A1330W mutant NaV1.5 channel in the DIII-M1296C VCF construct, labelled with MTS-TAMRA (human) (UniProt Q14524).
Test [4] has as its target NaV1.5 α subunit, DIII LFS voltage clamp fluorometry construct (M1296C), labelled with MTS-TAMRA (human) (UniProt Q14524). The source holds these as a separate data set.

Regarding β3-NTM β1-C chimera, the depolarizing shift of the DIII F-V curve (voltage clamp fluorometry in oocytes), α with chimera against α alone in test [1] was found to be 22.9 mV.

Turning to “WT NaV β1 subunit (from UniProt Q07699-1 19-218) (natural protein)”, the depolarizing shift of the DIV F-V curve (voltage clamp fluorometry in oocytes), α with β1 against α alone in test [2] is 31.3 mV.

B1: WT NaV β3 subunit (natural protein)
chain: FPVCVEVPSETEAVQGNPMKLRCISCMKREEVEATTVVEWFYRPEGGKDFLIYEYRNGHQEVESPFQGRLQWNGSKDLQDVSITVLNVTLNDSGLYTCNVSREFEFEAHRPFVKTTRLIPLRVTEEAGEDFTSVVSEIMMYILLVFLTLWLLIEMIYCYRKVSKAEEAAQENASDYLAIPSENKENSAVPVEE
With B1, the depolarizing shift of the DIII F-V curve (voltage clamp fluorometry in oocytes), A1330W with β3 against A1330W alone in test [3] is 22.6 mV. Besides, in test [4], the depolarizing shift of the DIII F-V curve (voltage clamp fluorometry in oocytes), α with β3 against α alone is 20.7 mV.
